What was measured:
[1] = molecular target: T1, FcγRIIa R (human, UniProt P12318 34-217); assay: SPR (Biacore), captured antibody, FcγR as analyte; relative binding, control GpH7-A5/GpH7-B3/GpL16-k0 = 100
T1 construct: extracellular domain; also called FcgRIIa R type; 2aR
T1 sequence (looked up): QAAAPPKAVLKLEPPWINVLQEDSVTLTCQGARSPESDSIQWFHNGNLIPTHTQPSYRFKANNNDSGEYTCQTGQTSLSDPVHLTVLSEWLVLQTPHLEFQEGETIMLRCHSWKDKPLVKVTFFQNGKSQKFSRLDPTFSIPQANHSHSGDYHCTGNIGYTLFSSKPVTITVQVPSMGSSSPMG

[2] = molecular target: T2, FcγRIIb (human, UniProt P31994 43-217); assay: as above
T2 construct: extracellular domain; also called FcgRIIb; 2b
T2 sequence (looked up): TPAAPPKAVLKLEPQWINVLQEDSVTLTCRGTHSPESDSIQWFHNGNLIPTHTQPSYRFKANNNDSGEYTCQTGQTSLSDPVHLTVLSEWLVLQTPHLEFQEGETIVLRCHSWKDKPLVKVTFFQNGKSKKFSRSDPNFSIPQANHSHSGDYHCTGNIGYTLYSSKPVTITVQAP

[3] = molecular target: T1, FcγRIIa R; assay: SPR (Biacore); He/Con_2aR divided by He/Con_2b (FcγRIIa R over FcγRIIb)

| Binder | He/Con_2aR [1] [control = 100] | He/Con_2b [2] [control = 100] | He_2aR/2b (IIaR/IIb) [3] [ratio] |
| --- | --- | --- | --- |
| GpH7-A5/GpH7-B3 variant H268_11K/GpL16-k0 (antibody, human IgG1, kappa, heterodimerized anti-glypican-3 IgG1; alteration in one H chain only; also called He Ab) heavy 1: not shown heavy 2: not shown light: DIVMTQSPLSLPVTPGEPASISCQASESLVHSNRNTYLHWYLQKPGQSPQLLIYKVSNRFSGVPDRFSGSGSGTDFTLKISRVEAEDVGVYYCSQNTHVPPTFGQGTKVEIERTVAAPSVFIFPPSDEQLKSGTASVVCLLNNFYPREAKVQWKVDNALQSGNSQESVTEQDSKDSTYSLSSTLTLSKADYEKHKVYACEVTHQGLSSPVTKSFNRGEC | 100 | 83 | 1.21 |
| GpH7-A5/GpH7-B3 variant Q295_05P/GpL16-k0 (antibody, human IgG1, kappa, heterodimerized anti-glypican-3 IgG1; alteration in one H chain only; also called He Ab) heavy 1: not shown heavy 2: not shown light: DIVMTQSPLSLPVTPGEPASISCQASESLVHSNRNTYLHWYLQKPGQSPQLLIYKVSNRFSGVPDRFSGSGSGTDFTLKISRVEAEDVGVYYCSQNTHVPPTFGQGTKVEIERTVAAPSVFIFPPSDEQLKSGTASVVCLLNNFYPREAKVQWKVDNALQSGNSQESVTEQDSKDSTYSLSSTLTLSKADYEKHKVYACEVTHQGLSSPVTKSFNRGEC | 87.4 | 67.5 | 1.3 |
| GpH7-A5/GpH7-B3 variant Q295_15Y/GpL16-k0 (antibody, human IgG1, kappa, heterodimerized anti-glypican-3 IgG1; alteration in one H chain only; also called He Ab) heavy 1: not shown heavy 2: not shown light: DIVMTQSPLSLPVTPGEPASISCQASESLVHSNRNTYLHWYLQKPGQSPQLLIYKVSNRFSGVPDRFSGSGSGTDFTLKISRVEAEDVGVYYCSQNTHVPPTFGQGTKVEIERTVAAPSVFIFPPSDEQLKSGTASVVCLLNNFYPREAKVQWKVDNALQSGNSQESVTEQDSKDSTYSLSSTLTLSKADYEKHKVYACEVTHQGLSSPVTKSFNRGEC | 82.8 | 65.4 | 1.27 |
| GpH7-A5/GpH7-B3 variant Q295_18N/GpL16-k0 (antibody, human IgG1, kappa, heterodimerized anti-glypican-3 IgG1; alteration in one H chain only; also called He Ab) heavy 1: not shown heavy 2: not shown light: DIVMTQSPLSLPVTPGEPASISCQASESLVHSNRNTYLHWYLQKPGQSPQLLIYKVSNRFSGVPDRFSGSGSGTDFTLKISRVEAEDVGVYYCSQNTHVPPTFGQGTKVEIERTVAAPSVFIFPPSDEQLKSGTASVVCLLNNFYPREAKVQWKVDNALQSGNSQESVTEQDSKDSTYSLSSTLTLSKADYEKHKVYACEVTHQGLSSPVTKSFNRGEC | 82.4 | 64.9 | 1.27 |
| GpH7-A5/GpH7-B3 variant Q295_11K/GpL16-k0 (antibody, human IgG1, kappa, heterodimerized anti-glypican-3 IgG1; alteration in one H chain only; also called He Ab) heavy 1: not shown heavy 2: not shown light: DIVMTQSPLSLPVTPGEPASISCQASESLVHSNRNTYLHWYLQKPGQSPQLLIYKVSNRFSGVPDRFSGSGSGTDFTLKISRVEAEDVGVYYCSQNTHVPPTFGQGTKVEIERTVAAPSVFIFPPSDEQLKSGTASVVCLLNNFYPREAKVQWKVDNALQSGNSQESVTEQDSKDSTYSLSSTLTLSKADYEKHKVYACEVTHQGLSSPVTKSFNRGEC | 88.9 | 70.4 | 1.26 |
| GpH7-A5/GpH7-B3 variant Q295_20W/GpL16-k0 (antibody, human IgG1, kappa, heterodimerized anti-glypican-3 IgG1; alteration in one H chain only; also called He Ab) heavy 1: not shown heavy 2: not shown light: DIVMTQSPLSLPVTPGEPASISCQASESLVHSNRNTYLHWYLQKPGQSPQLLIYKVSNRFSGVPDRFSGSGSGTDFTLKISRVEAEDVGVYYCSQNTHVPPTFGQGTKVEIERTVAAPSVFIFPPSDEQLKSGTASVVCLLNNFYPREAKVQWKVDNALQSGNSQESVTEQDSKDSTYSLSSTLTLSKADYEKHKVYACEVTHQGLSSPVTKSFNRGEC | 60 | 44.4 | 1.35 |
| GpH7-A5/GpH7-B3 variant S298_01G/GpL16-k0 (antibody, human IgG1, kappa, heterodimerized anti-glypican-3 IgG1; alteration in one H chain only; also called He Ab) heavy 1: not shown heavy 2: not shown light: DIVMTQSPLSLPVTPGEPASISCQASESLVHSNRNTYLHWYLQKPGQSPQLLIYKVSNRFSGVPDRFSGSGSGTDFTLKISRVEAEDVGVYYCSQNTHVPPTFGQGTKVEIERTVAAPSVFIFPPSDEQLKSGTASVVCLLNNFYPREAKVQWKVDNALQSGNSQESVTEQDSKDSTYSLSSTLTLSKADYEKHKVYACEVTHQGLSSPVTKSFNRGEC | 98.8 | 80.1 | 1.23 |
| GpH7-A5/GpH7-B3 variant Q295_13S/GpL16-k0 (antibody, human IgG1, kappa, heterodimerized anti-glypican-3 IgG1; alteration in one H chain only; also called He Ab) heavy 1: not shown heavy 2: not shown light: DIVMTQSPLSLPVTPGEPASISCQASESLVHSNRNTYLHWYLQKPGQSPQLLIYKVSNRFSGVPDRFSGSGSGTDFTLKISRVEAEDVGVYYCSQNTHVPPTFGQGTKVEIERTVAAPSVFIFPPSDEQLKSGTASVVCLLNNFYPREAKVQWKVDNALQSGNSQESVTEQDSKDSTYSLSSTLTLSKADYEKHKVYACEVTHQGLSSPVTKSFNRGEC | 73.7 | 56.9 | 1.3 |
| GpH7-A5/GpH7-B3 variant Q295_01G/GpL16-k0 (antibody, human IgG1, kappa, heterodimerized anti-glypican-3 IgG1; alteration in one H chain only; also called He Ab) heavy 1: not shown heavy 2: not shown light: DIVMTQSPLSLPVTPGEPASISCQASESLVHSNRNTYLHWYLQKPGQSPQLLIYKVSNRFSGVPDRFSGSGSGTDFTLKISRVEAEDVGVYYCSQNTHVPPTFGQGTKVEIERTVAAPSVFIFPPSDEQLKSGTASVVCLLNNFYPREAKVQWKVDNALQSGNSQESVTEQDSKDSTYSLSSTLTLSKADYEKHKVYACEVTHQGLSSPVTKSFNRGEC | 60.9 | 46 | 1.32 |
| GpH7-A5/GpH7-B3 variant Q295_03V/GpL16-k0 (antibody, human IgG1, kappa, heterodimerized anti-glypican-3 IgG1; alteration in one H chain only; also called He Ab) heavy 1: not shown heavy 2: not shown light: DIVMTQSPLSLPVTPGEPASISCQASESLVHSNRNTYLHWYLQKPGQSPQLLIYKVSNRFSGVPDRFSGSGSGTDFTLKISRVEAEDVGVYYCSQNTHVPPTFGQGTKVEIERTVAAPSVFIFPPSDEQLKSGTASVVCLLNNFYPREAKVQWKVDNALQSGNSQESVTEQDSKDSTYSLSSTLTLSKADYEKHKVYACEVTHQGLSSPVTKSFNRGEC | 91.2 | 75.7 | 1.2 |
| GpH7-A5/GpH7-B3 variant Q295_16H/GpL16-k0 (antibody, human IgG1, kappa, heterodimerized anti-glypican-3 IgG1; alteration in one H chain only; also called He Ab) heavy 1: not shown heavy 2: not shown light: DIVMTQSPLSLPVTPGEPASISCQASESLVHSNRNTYLHWYLQKPGQSPQLLIYKVSNRFSGVPDRFSGSGSGTDFTLKISRVEAEDVGVYYCSQNTHVPPTFGQGTKVEIERTVAAPSVFIFPPSDEQLKSGTASVVCLLNNFYPREAKVQWKVDNALQSGNSQESVTEQDSKDSTYSLSSTLTLSKADYEKHKVYACEVTHQGLSSPVTKSFNRGEC | 81.3 | 62.7 | 1.3 |
| GpH7-A5/GpH7-B3 variant S298_02A/GpL16-k0 (antibody, human IgG1, kappa, heterodimerized anti-glypican-3 IgG1; alteration in one H chain only; also called He Ab; GpH7-A5/GpH7-B3-15-02A/GpL16-k0) heavy 1: not shown heavy 2: not shown light: DIVMTQSPLSLPVTPGEPASISCQASESLVHSNRNTYLHWYLQKPGQSPQLLIYKVSNRFSGVPDRFSGSGSGTDFTLKISRVEAEDVGVYYCSQNTHVPPTFGQGTKVEIERTVAAPSVFIFPPSDEQLKSGTASVVCLLNNFYPREAKVQWKVDNALQSGNSQESVTEQDSKDSTYSLSSTLTLSKADYEKHKVYACEVTHQGLSSPVTKSFNRGEC | 91.2 | 73.4 | 1.24 |
| GpH7-A5/GpH7-B3 variant P271_04F/GpL16-k0 (antibody, human IgG1, kappa, heterodimerized anti-glypican-3 IgG1; alteration in one H chain only; also called He Ab) heavy 1: not shown heavy 2: not shown light: DIVMTQSPLSLPVTPGEPASISCQASESLVHSNRNTYLHWYLQKPGQSPQLLIYKVSNRFSGVPDRFSGSGSGTDFTLKISRVEAEDVGVYYCSQNTHVPPTFGQGTKVEIERTVAAPSVFIFPPSDEQLKSGTASVVCLLNNFYPREAKVQWKVDNALQSGNSQESVTEQDSKDSTYSLSSTLTLSKADYEKHKVYACEVTHQGLSSPVTKSFNRGEC | 75.9 | 59.5 | 1.28 |
| GpH7-A5/GpH7-B3 variant Q295_12R/GpL16-k0 (antibody, human IgG1, kappa, heterodimerized anti-glypican-3 IgG1; alteration in one H chain only; also called He Ab) heavy 1: not shown heavy 2: not shown light: DIVMTQSPLSLPVTPGEPASISCQASESLVHSNRNTYLHWYLQKPGQSPQLLIYKVSNRFSGVPDRFSGSGSGTDFTLKISRVEAEDVGVYYCSQNTHVPPTFGQGTKVEIERTVAAPSVFIFPPSDEQLKSGTASVVCLLNNFYPREAKVQWKVDNALQSGNSQESVTEQDSKDSTYSLSSTLTLSKADYEKHKVYACEVTHQGLSSPVTKSFNRGEC | 83 | 65.2 | 1.27 |
| GpH7-A5/GpH7-B3 variant Q295_04F/GpL16-k0 (antibody, human IgG1, kappa, heterodimerized anti-glypican-3 IgG1; alteration in one H chain only; also called He Ab) heavy 1: not shown heavy 2: not shown light: DIVMTQSPLSLPVTPGEPASISCQASESLVHSNRNTYLHWYLQKPGQSPQLLIYKVSNRFSGVPDRFSGSGSGTDFTLKISRVEAEDVGVYYCSQNTHVPPTFGQGTKVEIERTVAAPSVFIFPPSDEQLKSGTASVVCLLNNFYPREAKVQWKVDNALQSGNSQESVTEQDSKDSTYSLSSTLTLSKADYEKHKVYACEVTHQGLSSPVTKSFNRGEC | 83.6 | 64.7 | 1.29 |
| GpH7-A5/GpH7-B3 variant S298_03V/GpL16-k0 (antibody, human IgG1, kappa, heterodimerized anti-glypican-3 IgG1; alteration in one H chain only; also called He Ab) heavy 1: not shown heavy 2: not shown light: DIVMTQSPLSLPVTPGEPASISCQASESLVHSNRNTYLHWYLQKPGQSPQLLIYKVSNRFSGVPDRFSGSGSGTDFTLKISRVEAEDVGVYYCSQNTHVPPTFGQGTKVEIERTVAAPSVFIFPPSDEQLKSGTASVVCLLNNFYPREAKVQWKVDNALQSGNSQESVTEQDSKDSTYSLSSTLTLSKADYEKHKVYACEVTHQGLSSPVTKSFNRGEC | 86.3 | 64.5 | 1.34 |
| GpH7-A5/GpH7-B3 variant P271_15Y/GpL16-k0 (antibody, human IgG1, kappa, heterodimerized anti-glypican-3 IgG1; alteration in one H chain only; also called He Ab) heavy 1: not shown heavy 2: not shown light: DIVMTQSPLSLPVTPGEPASISCQASESLVHSNRNTYLHWYLQKPGQSPQLLIYKVSNRFSGVPDRFSGSGSGTDFTLKISRVEAEDVGVYYCSQNTHVPPTFGQGTKVEIERTVAAPSVFIFPPSDEQLKSGTASVVCLLNNFYPREAKVQWKVDNALQSGNSQESVTEQDSKDSTYSLSSTLTLSKADYEKHKVYACEVTHQGLSSPVTKSFNRGEC | 70.7 | 52.3 | 1.35 |
| GpH7-A5/GpH7-B3 variant P271_20W/GpL16-k0 (antibody, human IgG1, kappa, heterodimerized anti-glypican-3 IgG1; alteration in one H chain only; also called He Ab) heavy 1: not shown heavy 2: not shown light: DIVMTQSPLSLPVTPGEPASISCQASESLVHSNRNTYLHWYLQKPGQSPQLLIYKVSNRFSGVPDRFSGSGSGTDFTLKISRVEAEDVGVYYCSQNTHVPPTFGQGTKVEIERTVAAPSVFIFPPSDEQLKSGTASVVCLLNNFYPREAKVQWKVDNALQSGNSQESVTEQDSKDSTYSLSSTLTLSKADYEKHKVYACEVTHQGLSSPVTKSFNRGEC | 77.3 | 58.1 | 1.33 |

Reference: patent US20150344570A1 (published 2015)
